These results are taken from EP4713370A2 (dated 2026).

The target of test [1] is T1, Recombinant human NKp46, His Tag (human NKp46 ECD antigen, aa. 22-254, his-tagged) (human, UniProt O76036 22-255).
T1 construct: also called NKp46 extracellular domain (ECD); Acrobiosystems #NC1-H52H4; not shown: His tag
Description: ELISA on coated NKp46-His, and BLI with antibody on anti-human IgG Fc probe and 11 nM NKp46-His. On the technique in general: ELISA stands for enzyme-linked immunosorbent assay.

Test [2] has as its target T2, human NKp46 expressed on cells (primary human NK cells; CHOK1-hNKp46 cells) (human, UniProt O76036 22-304).
T2 construct: whole, on cells; also called cell surface expressed NKp46; NCR1
Put plainly: flow cytometry on primary human NK cells, rabbit IgG, anti-rabbit IgG FITC. In general terms: A flow cytometer gives signals particle by particle.

T2 sequence (O76036 22-304): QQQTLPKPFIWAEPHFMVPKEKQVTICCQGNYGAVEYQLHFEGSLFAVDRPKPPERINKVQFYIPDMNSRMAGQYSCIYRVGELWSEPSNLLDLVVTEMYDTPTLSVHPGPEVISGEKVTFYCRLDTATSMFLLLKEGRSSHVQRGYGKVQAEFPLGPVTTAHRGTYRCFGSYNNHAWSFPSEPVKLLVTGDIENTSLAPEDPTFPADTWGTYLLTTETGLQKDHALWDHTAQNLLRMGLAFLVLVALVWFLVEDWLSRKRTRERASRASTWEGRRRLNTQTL
T1 sequence (O76036 other isoform, or with tags, fused parts or gaps): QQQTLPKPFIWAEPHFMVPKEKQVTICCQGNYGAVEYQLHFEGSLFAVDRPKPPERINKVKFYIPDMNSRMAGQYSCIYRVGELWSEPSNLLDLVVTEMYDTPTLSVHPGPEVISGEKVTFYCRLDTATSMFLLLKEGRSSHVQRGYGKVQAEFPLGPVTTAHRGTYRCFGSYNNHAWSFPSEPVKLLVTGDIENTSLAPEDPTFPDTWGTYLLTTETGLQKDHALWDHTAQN

B1: ch5-13 (antibody, human IgG1, kappa, V domains shown)
VH: QSVEESGGRLVTPGTPLTLTCTVSGFSLSSYHMSWVRQAPGKGLEWIGYILANTDSYYANWAKGRFTISKTSTTVDLKITSPTTEDTATYFCARYDNHDAAYSTLWGPGTLVTVSS
VL: AYDMTQTPASVEVAVGGTVTIKCQASQSISTALAWYQQKPGQPPKLLIYKASTLASGVSSRFKGSGSGTQFTLTISGVEPADAATYYCQQGYSRSNVDNVFGGGTEVVVKR
notes: Chimeric rabbit/human IgG1; also called chimeric anti-NKp46 antibody ch5-13
As to B1, the binding result in test [1] is “binds”.

B2: rabbit anti-NKp46 clone 5-13 (expressed and purified as rabbit IgG) (antibody, V domains shown)
VH: QSVEESGGRLVTPGTPLTLTCTVSGFSLSSYHMSWVRQAPGKGLEWIGYILANTDSYYANWAKGRFTISKTSTTVDLKITSPTTEDTATYFCARYDNHDAAYSTLWGPGTLVTVSS
VL: AYDMTQTPASVEVAVGGTVTIKCQASQSISTALAWYQQKPGQPPKLLIYKASTLASGVSSRFKGSGSGTQFTLTISGVEPADAATYYCQQGYSRSNVDNVFGGGTEVVVK
notes: Rabbit IgG
Turning to B2, the binding result in test [2] was “binds”.

B3: ch3-7 (antibody, human IgG1, kappa, V domains shown)
VH: QSLEESGGRLVTPGTPLTLTCTVSGFSPSSYYMSWVRQAPGKGLEYIGIIFSGGSTWYASWAKGRVTISRTSTTVDLKMTSLTTEDTATYFCARGDAVGSGYWGLWGPGTLVTVSS
VL: AFELTQTPSSVEAAVGGTVTINCQASQDIYIYLAWYQQKPGQPPKLLIYSASTLASGVSSRFTGSRSGTQFTLTISDLEPADAATYYCQSYDGTSNTGFGGGTEVVVRR
notes: Chimeric rabbit/human IgG1; also called chimeric anti-NKp46 antibody ch3-7
Consider B3, for which the binding result in test [1] is “binds”.

B4: rabbit anti-NKp46 clone 3-7 (expressed and purified as rabbit IgG) (antibody, V domains shown)
VH: QSLEESGGRLVTPGTPLTLTCTVSGFSPSSYYMSWVRQAPGKGLEYIGIIFSGGSTWYASWAKGRVTISRTSTTVDLKMTSLTTEDTATYFCARGDAVGSGYWGLWGPGTLVTVSS
VL: AFELTQTPSSVEAAVGGTVTINCQASQDIYIYLAWYQQKPGQPPKLLIYSASTLASGVSSRFTGSRSGTQFTLTISDLEPADAATYYCQSYDGTSNTGFGGGTEVVVR
notes: Rabbit IgG
Take B4: the binding result in test [2] is listed as “binds”.
